Assay results published in publication PMC7007264.

Target: Rad51-2A (Saccharomyces cerevisiae, UniProt P25454 1-400, S125A;S375A)
Assay: EMSA

Chain of Rad51-2A (P25454 whole entry S125A/S375A): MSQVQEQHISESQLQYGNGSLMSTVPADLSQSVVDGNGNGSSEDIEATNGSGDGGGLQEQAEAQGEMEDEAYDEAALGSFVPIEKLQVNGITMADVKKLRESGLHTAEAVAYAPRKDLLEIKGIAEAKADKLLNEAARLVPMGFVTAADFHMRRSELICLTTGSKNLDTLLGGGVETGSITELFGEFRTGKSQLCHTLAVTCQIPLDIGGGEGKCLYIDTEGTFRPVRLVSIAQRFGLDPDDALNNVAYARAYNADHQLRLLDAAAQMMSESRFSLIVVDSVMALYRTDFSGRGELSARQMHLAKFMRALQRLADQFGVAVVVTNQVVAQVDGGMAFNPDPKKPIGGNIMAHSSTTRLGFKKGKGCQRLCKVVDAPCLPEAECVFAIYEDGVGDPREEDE

B1: ssDNA EMSA probe (ssDNA)
DNA: CGGGTGTCGGGGCTGGCTTAACTATGCGGCATCAGAGCAGATTGTACTGAGAGTGCACCATATGCGGTGTGAAATACCGCACAGATGCGT
binding result: no binding
